{
  "source": "paper PMC4395114",
  "about": "(PLoS Pathogens, 2015)",
  "proteins": {"B1": {"name": "RNA-free recombinant WT NP (NΔ7NP, C-terminal His tag), influenza A/WSN/33 (natural protein)", "chain": "RSYEQMETDGERQNATEIRASVGKMIGGIGRFYIQMCTELKLSDYEGRLIQNSLTIERMVLSAFDERRNKYLEEHPSAGKDPKKTGGPIYRRVDGKWMRELILYDKEEIRRIWRQANNGDDATAGLTHMMIWHSNLNDATYQRTRALVRTGMDPRMCSLMQGSTLPRRSGAAGAAVKGVGTMVMELIRMIKRGINDRNFWRGENGRRTRIAYERMCNILKGKFQTAAQRAMVDQVRESRNPGNAEFEDLIFLARSALILRGSVAHKSCLPACVYGPAVASGYDFEREGYSLVGIDPFRLLQNSQVYSLIRPNENPAHKSQLVWMACHSAAFEDLRVSSFIRGTKVVPRGKLSTRGVQIASNENMETMESSTLELRSRYWAIRTRSGGNTNQQRASSGQISIQPTFSVQRNLPFDRPTIMAAFTGNTEGRTSDMRTEIIRLMESARPEDVSFQGRGVFELSDEKAASPIVPSFDMSNEGSYFFGDNAEEYDN"}},
  "molecular_target": "the molecule itself",
  "experiment": "SEC + other: negative stain electron microscopy",
  "data": [
    {"protein": "B1", "values": [
      {"measurement": "stoichiometry N", "result": "3 to 6"}
    ]}
  ]
}
